Assays:
[1] = In-vitro flow system perfusion of antibody-loaded stents (antibody remaining on stent); assay type: physicochemical; conditions: 10 ml/min, 1% BSA in PBS, after approximately 10 days perfusion
Method: In one example, device 10 is a stainless steel GR II™ stent in which the stainless steel base material 14 of structure 12 is coated with a polymer and, in particular, parylene. This adsorbent polymer layer 16 of parylene is approximately 230,000 Å thick. Bioactive material layer 18 of the antiplatelet GP IIb/IIIa antibody (AZ1) was passively loaded on adsorbent polymer layer 16. The polymer coated stainless steel stents were immersed for approximately 24 hours in a buffered aqueous solution of AZ1 antibody (1 mg/ml, pH=7.2) at 37° C. AZ1 is a monoclonal anti-rabbit platelet glycoprotein (GP) IIb/IIIa antibody.
In another example, c7E3 Fab as bioactive material layer 18 is attached to polymer coating layer 16. Bioactive material c7E3 Fab is a chimeric monoclonal antibody that acts upon the […] integrin on platelets to inhibit their aggregation. This antibody or receptor blocker may be used in humans intravenously to prevent thrombosis during coronary angioplasty. This receptor blocker is also known as ReoPro™ available from Eli Lilly, Indianapolis, Ind. Bioactive material layer 18 of the antiplatelet GP IIb/IIIa antibody (c7E3 Fab) was passively loaded on adsorbent polymer layer 16. […]

[2] = In vitro release rate of bioactive material from beneath porous parylene layer; assay type: physicochemical; conditions: dexamethasone layer over heparin layer, compared with the material alone
Method: When the at least one layer 18 of bioactive material contains a relatively soluble material such as heparin, the at least one layer 18 preferably contains a total of from about 0.1 to about 4 mg of bioactive material per cm^2 of the gross surface area of the structure 12. This provides a release rate for the heparin (measured in vitro) which is desirably in the range of 0.1 to 0.5 mg/cm^2 per day, and preferably about 0.25 mg/cm^2 per day, under typical blood flows through vascular stents. It should be noted that the solubility of dexamethasone may be adjusted as desired, with or without the inclusion of heparin, by mixing it with one or more of its relatively more soluble derivatives, such as dexamethasone sodium phosphate.
For example, when the structure 12 of the device 10 is configured as a vascular stent, it is advantageous for the at least one layer 18 to contain relatively soluble heparin, and the second layer 22 to contain relatively less soluble dexamethasone. […] More particularly, when dexamethasone is disposed by itself beneath a porous parylene layer 20 dimensioned as disclosed above, its release rate is negligible; an adequate release rate is obtained only when the thickness of the porous layer 20 is reduced by a factor of ten or more. […]

Substance	fraction of loaded antibody remaining on the stent [1]	change of release rate in heparin/dexamethasone two-layer device [2]
c7E3 Fab: chimeric monoclonal antibody that acts upon the […] integrin on platelets to inhibit their aggregation	approximately half	
heparin		lowered

Source: patent publication US7846202B2, “Coated implantable medical device” (Cook Incorporated, priority 1995, dated 2010)
